# T1: alphaS1-casein, P02662
# T1 chain: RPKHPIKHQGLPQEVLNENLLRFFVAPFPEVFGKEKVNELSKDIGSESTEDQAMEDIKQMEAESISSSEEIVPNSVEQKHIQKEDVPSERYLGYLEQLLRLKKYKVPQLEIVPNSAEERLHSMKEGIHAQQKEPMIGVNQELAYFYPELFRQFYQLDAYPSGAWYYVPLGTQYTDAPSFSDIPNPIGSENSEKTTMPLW
# Target: T1, alphaS1-casein, P02662
row,Protein,Degradation of intact alphaS1-casein (% of reference A) (% of reference A)
1,camel chymosin (CHY-MAX M from Chr. Hansen A/S) (protein) GKVAREPLTSYLDSQYFGKIYIGTPPQEFTVVFDTGSSDLWVPSIYCKSNVCKNHHRFDPRKSSTFRNLGKPLSIHYGTGSMEGFLGYDTVTVSNIVDPNQTVGLSTEQPGEVFTYSEFDGILGLAYPSLASEYSVPVFDNMMDRHLVARDLFSVYMDRNGQGSMLTLGAIDPSYYTGSLHWVPVTLQQYWQFTVDSVTINGVAVACVGGCQAILDTGTSVLFGPSSDILKIQMAIGATENRYGEFDVNCGNLRSMPTVVFEINGRDYPLSPSAYTSKDQGFCTSGFQGDNNSELWILGDVFIREYYSVFDRANNRVGLAKAI,38
2,aspartic protease represented by SEQ ID NO: 4 (protein) GEVASEPLTSYLDSQYFGKIYIGTPPQEFTVVFDTGSSDLWVPSVYCKSDACQNHQRFDPSMSSTFQNLGKPLSIQYGTGSMQGFLGYDTVTVSDIVDPQQTVGLSTQEPGDVFTYSEFDGILGLAYPSLASEYSVPVFDNMMNRHLVAQDLFSVYMDRNGQESMLTLGAIDPSYYTGSLHWVPVTLQKYWQFTVDSVTIGGVVVACDGGCQAILDTGTSMLVGPSSDILNIQMAIGATQNQYGEFDIDCGSLSSMPTVVFEINSRMYPLTPSAYTNQDQGFCTSGFQGENNSQQWILGDVFIREYYSVFDRANNRVGLAKAV,105
3,aspartic protease or coagulant or chymosin represented by SEQ ID NO: 1 (protein) GKIAREPLTNYLDTEYFGKIQIGSPPQEFTVVFDTGSSDLWVPSVFCNSDACQNHHRFNPSKSSTFQNMNRPLSIQYGTGSMQGFLGYDTVTVSNIVVPHQTVGLSTQEPGDIFTYSEFDGILGLAYPSLASQYSVPVFDNMMKQHLVAQDLFSVYMNSQGQGSMLILGAIDPSYYVGALHWVPVTVQQYWQFTVDRITVDGVVVACDGGCQAILDTGTSLLVGPSSDILNIQTVIGATQGQYGEFDIDCGSLRSKPTVVFEINGREYPLPPTAYTNQDQGFCTSGFQGDDSQQWVLGDVFIREYYSVFDRVNNRVGLAKAI,135
4,aspartic protease or coagulant or chymosin represented by SEQ ID NO: 3 (protein) GEAAKVTDEPLTNYLDSQYFGKIYIGTPPQEFTVVFDTGSSNLWVPSVYCNSDACQNHHRFNPASSTTFRSTQEPLSIQYGTGSMEGVLGYDTVTVSQIVVPDQIFGLSTQEPGEIFTYSEFDGILGLGYPSLAEDQATPVFDNMMNKNLVAQDLFSVYMSRDSQGSMLILGAIDPSYYTGSLHWVPVTEQGYWQFSVDSITVNGQVVACEGGCQAILDTGTSLLVGPSYDIANIQSIIGATQGQYGEYDINCSNLSSMPTVVVHINGRQYPLPPSAYTNQDQGLCSSGFQSEGSDQLWILGDVFIREYYSVFDRGNNRVGLATAV,204
5,aspartic protease or coagulant or chymosin represented by SEQ ID NO: 2 (protein) GKVARESLTNYLDCQYFGKIYIGTPPQEFTVVFDTGSSDLWVPSVYCNSDACQNHHRFDPSKSSTFQNMDKSLSIQYGTGSMQGLLGYDTVTVSNIVDRHQTVGLSTQEPGDVFTYSEFDGILGLAYPSLASEYSVPVFDNMMDRHLVAQDLFSVYMSRNEQGSMLTLGAIDRSYYTGSLHWIPVTVQEYWQFTVDRVTVDGVVVACDGGCQAILDTGTSMLVGPGSDIFNIQQAIGATEGQFGEFDIDCGRLSSMPTVVFEINGKKYPLPPSAYTSQDQGFCTSGFQGDYSSQQWILGDVFIREYYSVFDRASNRVGLAKAI,71
6,bovine chymosin (CHY-MAX Plus from Chr. Hansen A/S) (protein) GEVASVPLTNYLDSQYFGKIYLGTPPQEFTVLFDTGSSDFWVPSIYCKSNACKNHQRFDPRKSSTFQNLGKPLSIHYGTGSMQGILGYDTVTVSNIVDIQQTVGLSTQEPGDVFTYAEFDGILGMAYPSLASEYSIPVFDNMMNRHLVAQDLFSVYMDRNGQESMLTLGAIDPSYYTGSLHWVPVTVQQYWQFTVDSVTISGVVVACEGGCQAILDTGTSKLVGPSSDILNIQQAIGATQNQYGEFDIDCDNLSYMPTVVFEINGKMYPLTPSAYTSQDQGFCTSGFQSENHSQKWILGDVFIREYYSVFDRANNLVGLAKAI,100

# — patent publication US20260000087
